Test results as given in patent US12497460B2, “Anti-MSR1 antibodies and methods of use thereof” (REGENERON PHARMACEUTICALS, INC., priority 2018, dated 2025).

T1: MSR1 on differentiated THP-1 cells (Homo sapiens, UniProt P21757)
T1 construct: endogenous in cells; host or cells: THP-1 cells differentiated with PMA
T1 sequence (P21757 1-451): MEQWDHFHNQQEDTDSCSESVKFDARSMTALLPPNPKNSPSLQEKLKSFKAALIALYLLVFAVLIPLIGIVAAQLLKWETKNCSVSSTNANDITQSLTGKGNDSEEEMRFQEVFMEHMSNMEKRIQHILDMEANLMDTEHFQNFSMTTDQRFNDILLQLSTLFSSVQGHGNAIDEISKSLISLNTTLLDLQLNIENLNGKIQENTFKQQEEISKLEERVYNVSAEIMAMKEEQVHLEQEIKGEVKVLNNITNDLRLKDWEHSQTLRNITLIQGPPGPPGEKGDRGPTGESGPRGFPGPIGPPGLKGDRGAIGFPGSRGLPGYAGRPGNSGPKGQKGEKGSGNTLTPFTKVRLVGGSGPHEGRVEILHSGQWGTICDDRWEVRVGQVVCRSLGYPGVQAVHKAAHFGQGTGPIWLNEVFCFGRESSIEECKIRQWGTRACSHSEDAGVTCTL


Legend:
[1] = target: T1, MSR1 on differentiated THP-1 cells; test: Binding and internalization of cell-surface expressed MSR1 in differentiated THP-1 cells; type: cell-based; settings: 10 μg/mL antibody; for Total Binding at 37° C. / Total Internalized RFU: 37° C.
Method: Exemplary anti-MSR1 antibodies were assessed for their ability to bind and internalize MSR1 on MSR1-expressing cells.
The THP-1 cells were allowed to differentiate for 4 days at 37° C. in 5% CO2. […] The remaining two plates were incubated at 37° C. for 1 hour followed by fixation and staining for 20 minutes using a solution of 4% PFA+5 μM DRAQ5 diluted in PBS (internalization plates). After fixation, all plates were washed once with PBS. […] The remaining plates were incubated with PBS only. Confocal images were acquired on the Opera Phenix (Perkin Elmer) at 40× magnification. […] The total binding at 4° C. (RFU values of 4° C. unquenched wells), total binding at 37° C. (RFU values of 37° C. unquenched wells), the total internalized RFU, and % Internalization were determined for each antibody as shown in Table 14.
For all calculations, background fluorescence from unstained wells was subtracted from every well. Total internalized RFU was calculated as follows: Total RFU of 37° C. unquenched samples−Surface RFU at 37° C. Surface RFU is defined as unquenched RFU at 37° C.−quenched RFU at 37° C.)/QE. QE (quenching efficiency) is defined as: 1−(Total RFU of 4° C. quenched sample/Total RFU of 4° C. unquenched sample). The % Internalization was determined from the following formula: (Total internalized RFU at 37° C./Total RFU at 37° C.)*100.

[2] = target: HMM-mfMSR1 (monkey MSR1 extracellular domain); test: Biacore surface plasmon resonance binding kinetics of anti-MSR1 mAbs, antibody-capture format; settings: analyte HMM-mfMSR1, NB = no binding observed; for kd: * = no dissociation observed, kd manually fixed at 1.00E−05; for ka: antibody-capture format; for Kd: calculated from kinetic rates; for t½: dissociative half-life
HMM-mfMSR1 (monkey MSR1 extracellular domain), sequence (as listed by the source): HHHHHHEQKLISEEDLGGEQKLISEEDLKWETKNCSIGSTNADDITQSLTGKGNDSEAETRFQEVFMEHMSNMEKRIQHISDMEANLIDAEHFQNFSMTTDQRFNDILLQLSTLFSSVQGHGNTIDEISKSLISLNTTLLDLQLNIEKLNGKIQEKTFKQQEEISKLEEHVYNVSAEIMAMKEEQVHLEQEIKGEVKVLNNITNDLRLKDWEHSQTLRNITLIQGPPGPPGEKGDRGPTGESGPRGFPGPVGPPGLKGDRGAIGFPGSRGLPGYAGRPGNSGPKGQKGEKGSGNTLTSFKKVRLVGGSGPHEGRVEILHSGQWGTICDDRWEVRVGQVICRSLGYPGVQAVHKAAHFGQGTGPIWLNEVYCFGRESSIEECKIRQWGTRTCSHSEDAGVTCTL
How it was run: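 Captured anti-MSR1 antibodies were run against MSR1 reagents by SPR in HBS-ET (pH 7.4) at 25 °C and 37 °C. ka and kd came from fitting sensorgrams to a 1:1 model with mass-transport limitation. KD and t½ were calculated from these rates.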

[3] = tested on: B16F10.9 cells (MSR1 negative); test: Flow cytometry binding, MSR1 negative cells; type: cell-based, mouse; settings: 10 μg/mL antibody
Method: Relative cell surface binding of the anti-MSR1 antibodies to mouse MSR1 expressing cells was determined by flow cytometry using MSR1 positive RAW264.7 cells (ATCC, Catalog #TIB-71) and MSR1 negative B16F10.9 cells (Lin et al. 1998. PNAS 95:8829-8834). For the assay, cells were plated in PBS without calcium and magnesium (VWR Cat #45000-446) and 2% FBS (Saradigm Cat #1500-500) (Staining Buffer) in 96 well V-bottom plates (Axygen Scientific, Cat #P-96-450-V-C-S). To block binding to Fc receptors, RAW264.7 cells were incubated for 30 minutes at 4° C. with 500 μg/mL mouse IgG (Jackson ImmunoResearch, Cat #015-000-003) diluted in staining buffer, while B16F10.9 cells remained in staining buffer. Following Fc receptor blocking, 10 μg/mL of anti-MSR1 antibodies or an isotype control antibody were added to the cells and were subsequently incubated for 30 minutes on ice. For a positive control, a commercial anti-mouse MSR1 (Sino Biological, Cat #50129-R004) antibody was used, while a rabbit IgG antibody (Thermo Scientific, Cat #26102) was used as a negative control. […] Cells were subsequently washed and fixed using a 50% solution of Cytofix (BD Biosciences, Cat #554655) diluted in PBS. […] The signal to noise (S/N) was determined by calculating the ratio of the anti-MSR1 antibodies or the control antibodies MFI to the unstained sample MFI (Table 11).

Molecule | % Internalization [1] | Total Binding at 4° C. [1] | Total Binding at 37° C. [1] | Total Internalized RFU [1] | kd ([2]; 25° C.) | ka ([2]; 25° C.) | kd ([2]; 37° C.) | ka ([2]; 37° C.) | Kd ([2]; 25° C.) | t½ ([2]; 25° C.) | Kd ([2]; 37° C.) | t½ ([2]; 37° C.) | B16F10.9 MFI [3] | B16F10.9 S/N [3]
H1H21231N: "anti-MSR1 antibodies ... (21227N, 21231N, 21234N) were produced with the original human Fcγ portion"; "H1H" = human IgG1 Fc (antibody, V domains shown, human IgG1 Fc, "anti-MSR1 antibodies ; (21227N, 21231N, 21234N) were produced with the original human Fcγ portion"; "H1H" = human IgG1 Fc) VH: EVQLVESGGGLVQPGGSLRLSCAASGFTFSDHYMDWVRQAPGKGLEWVGRTRNKANSHTTEYTASVTGRFTISRDDSRNSLYLQMNSLKTEDTAVYYCVRAGIIGTLFDYWGQGTLVTVSS VL: DIQMTQFPSSLSASVGDRVTITCRASQSISSFLNWFQQKPGKAPKFLIYAASSLQSGVPSRFSGSGSGTDFTLTISSLQPEDFATYYCQQSYSSPPITFGQGTRLEIKR | – | – | – | – | 6.39e-05 s⁻¹ | 274000 M⁻¹ s⁻¹ | 7.82e-05 s⁻¹ | 712000 M⁻¹ s⁻¹ | 0.233 nM | 3.02 h | 0.11 nM | 2.47 h | – | –
H1H21227N-N297D: "The 21227N antibody was also produced as a third version with a N297D mutation" (antibody, V domains shown) VH: QVQLVQSGAEVKKPGASVKVSCKVSGYTLTELSIHWVRQVPGKGLEWMGGFDPEEGETIFAQEFRDRVTLTEDTSPDTAYMELSSLKSEDAAVYYCTTPRYCNNGICYDYWGQGTLVTVSS VL: DIQMTQSPSSLSASVGDRVTITCRASQSISNYLNWYQQKPGKAPKLLIYTASSLQSGVPSRFSGSGSGTDFTLTISSLQTEDFATYYCQQSYSNFPITFGQGTRLEIKR | – | – | – | – | 4.03e-05 s⁻¹ | 1.35e+06 M⁻¹ s⁻¹ | 2.42e-05 s⁻¹ | 2.68e+06 M⁻¹ s⁻¹ | 0.0299 nM | 4.78 h | 0.00903 nM | 7.95 h | – | –
H1H21227N: "anti-MSR1 antibodies ... (21227N, 21231N, 21234N) were produced with the original human Fcγ portion"; "H1H" = human IgG1 Fc (antibody, V domains shown, human IgG1 Fc, "anti-MSR1 antibodies ; (21227N, 21231N, 21234N) were produced with the original human Fcγ portion"; "H1H" = human IgG1 Fc) VH: QVQLVQSGAEVKKPGASVKVSCKVSGYTLTELSIHWVRQVPGKGLEWMGGFDPEEGETIFAQEFRDRVTLTEDTSPDTAYMELSSLKSEDAAVYYCTTPRYCNNGICYDYWGQGTLVTVSS VL: DIQMTQSPSSLSASVGDRVTITCRASQSISNYLNWYQQKPGKAPKLLIYTASSLQSGVPSRFSGSGSGTDFTLTISSLQTEDFATYYCQQSYSNFPITFGQGTRLEIKR | – | – | – | – | 4.41e-05 s⁻¹ | 1.27e+06 M⁻¹ s⁻¹ | 1.00E−05* s^−1 | 2.76e+06 M⁻¹ s⁻¹ | 0.0348 nM | 4.37 h | 0.00362 nM | 19.25 h | – | –

Second part, led by results:

% Internalization [1] | Total Binding at 4° C. [1] | Total Binding at 37° C. [1] | Total Internalized RFU [1] | kd ([2]; 25° C.) | ka ([2]; 25° C.) | kd ([2]; 37° C.) | ka ([2]; 37° C.) | Kd ([2]; 25° C.) | t½ ([2]; 25° C.) | Kd ([2]; 37° C.) | t½ ([2]; 37° C.) | Molecule | B16F10.9 MFI [3] | B16F10.9 S/N [3]
71.6% | 3702857 | 5608380 | 4016378 RFU | 0.000144 s⁻¹ | 352000 M⁻¹ s⁻¹ | 0.000842 s⁻¹ | 2.25e+06 M⁻¹ s⁻¹ | – | – | – | – | H1H27739P-N297Q: anti-MSR1 antibody "made with an N297Q single point mutation in human Fcγ portion" (antibody, V domains shown) VH: EVQLVESGGGLVQPGGSLRLSCTASGFTFSSYAMSWVRQAPGKGLEWVSAISGTGSSTYFTDSVKGRFAISRDNSKNTLYLQMNSLRAEDTAVYYCAKDGEWLSTVTLFDYWGQGTLVTVSS VL: EIVMTQSPATLSVSPGERATLSCRASQSVSSNLAWYQQKPGQAPRLLIYGASTRATGIPARFSGSGSGTDFTLTISSLQSEDFALYYCQQYFIWPPHPTFGPGTKVDIKR | 3580 | –
57.0% | 1930685 | 6607625 | 3763127 RFU | 0.00212 s⁻¹ | 269000 M⁻¹ s⁻¹ | 0.00349 s⁻¹ | 407000 M⁻¹ s⁻¹ | – | – | – | – | H1H27729P-N297Q: anti-MSR1 antibody "made with an N297Q single point mutation in human Fcγ portion" (antibody, V domains shown) VH: QVQLVESGGGLVKPGGSLRLSCAASGFIFSDYYMSWIRQAPGKGLEWVSYISSSGTTIYGDSVKGRFTMSRDNAKNSLYLQMNSLRAEDTAVYYCARNYALFDYWGQGTLVTVSS VL: DIQMTQSPSSLSASVGDRVTITCQASQDISKYLNWYQQKPGKAPKLLIYYTSNLETGVPSRFSGSGSGTDFTFTISSLQPEDIATYYCHQSDYLPFTFGPGTKVDIKR | 3459 | –
78.5% | 1800012 | 4110990 | 3226161 RFU | 7.51e-05 s⁻¹ | 1.36e+06 M⁻¹ s⁻¹ | 1.08e-05 s⁻¹ | 2.74e+06 M⁻¹ s⁻¹ | 0.0553 nM | 2.57 h | 0.00395 nM | 17.82 h | H1H21227N-N297Q: "modified versions of 21227N (H1H21227N-N297Q and H1H21227N-N297D)"; anti-MSR1 antibody "with a N297Q single point mutation" (antibody, V domains shown) VH: QVQLVQSGAEVKKPGASVKVSCKVSGYTLTELSIHWVRQVPGKGLEWMGGFDPEEGETIFAQEFRDRVTLTEDTSPDTAYMELSSLKSEDAAVYYCTTPRYCNNGICYDYWGQGTLVTVSS VL: DIQMTQSPSSLSASVGDRVTITCRASQSISNYLNWYQQKPGKAPKLLIYTASSLQSGVPSRFSGSGSGTDFTLTISSLQTEDFATYYCQQSYSNFPITFGQGTRLEIKR | 3287 | 1
– | – | – | – | 9.03e-05 s⁻¹ | 240000 M⁻¹ s⁻¹ | 0.000109 s⁻¹ | 587000 M⁻¹ s⁻¹ | 0.376 nM | 2.13 h | 0.186 nM | 1.77 h | H1H21231N-N297Q: modified version of "21231N (H1H21231N-N297Q) anti-MSR1 antibodies" with "a N297Q single point mutation" (antibody, V domains shown) VH: EVQLVESGGGLVQPGGSLRLSCAASGFTFSDHYMDWVRQAPGKGLEWVGRTRNKANSHTTEYTASVTGRFTISRDDSRNSLYLQMNSLKTEDTAVYYCVRAGIIGTLFDYWGQGTLVTVSS VL: DIQMTQFPSSLSASVGDRVTITCRASQSISSFLNWFQQKPGKAPKFLIYAASSLQSGVPSRFSGSGSGTDFTLTISSLQPEDFATYYCQQSYSSPPITFGQGTRLEIKR | 3374 | –
